# Data as given in article PMC3347997, “Identification of basepairs within Tn5 termini that are critical sfor H-NS binding to the transpososome and regulation of Tn5 transposition”.
# T1: H-NS (Escherichia coli, UniProt P0ACF8 1-137)
# T1 sequence: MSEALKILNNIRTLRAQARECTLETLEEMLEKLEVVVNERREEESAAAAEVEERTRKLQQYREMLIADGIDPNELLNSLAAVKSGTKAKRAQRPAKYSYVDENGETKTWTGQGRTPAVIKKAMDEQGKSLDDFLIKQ
# Key:
# [1] = molecular target: H-NS;Tn5 transposase (Escherichia coli;Tn5) (UniProt P0ACF8+Q46731); experiment: EMSA; settings: 2 nM 32P-DNA, 200 nM transposase (400 nM for ME 8/9), H-NS normally 23-849 nM added simultaneously, no divalent metal, 30 min 37 C, 5% native PAGE; buffer …
# Sequence of H-NS;Tn5 transposase (Escherichia coli;Tn5) (Q46731 whole entry, chain 2 of 2, one chain of several): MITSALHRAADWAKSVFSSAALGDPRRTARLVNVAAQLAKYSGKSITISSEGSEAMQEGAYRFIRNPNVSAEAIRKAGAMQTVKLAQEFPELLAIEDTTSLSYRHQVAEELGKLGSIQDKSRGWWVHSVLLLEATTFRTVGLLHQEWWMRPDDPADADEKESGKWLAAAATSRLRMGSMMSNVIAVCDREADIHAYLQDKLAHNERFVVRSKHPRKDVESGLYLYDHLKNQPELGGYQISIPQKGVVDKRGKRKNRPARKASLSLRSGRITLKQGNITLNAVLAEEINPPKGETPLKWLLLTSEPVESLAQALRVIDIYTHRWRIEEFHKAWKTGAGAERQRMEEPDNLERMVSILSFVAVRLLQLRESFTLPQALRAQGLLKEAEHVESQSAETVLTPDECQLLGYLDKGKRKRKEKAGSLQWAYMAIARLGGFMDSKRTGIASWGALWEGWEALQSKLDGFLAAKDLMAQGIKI
# H-NS = molecular target: T1, H-NS; experiment: EMSA; no appreciable H-NS binding to OE DNA not associated with transposase; no divalent metal; 2 nM 32P-DNA, 200 nM transposase (400 nM for ME 8/9), H-NS normally 23-849 nM added simultaneously, no divalent metal, 30 min 37 C, 5% native PAGE; buffer, salt and pH not given (cited); settings: protein: recombinant; chain copies: 2; label: 5' 32P; as printed: 3 nt 5' overhang on strand 2; described as 53 bp duplex; two copies per transpososome
Molecule,Kd [1] [nM],binding result (H-NS)
CCCTGCAGGTCGACTGACTCTTATACACAAGTTGAGTGAGTGAGCATGCA / ACATGCATGCTCACTCACTCAACTTGTGTATAAGAGTCAGTCGACCTGCAGGG [OE 53-bp transposon end],232,
CCCTGCAGGTCGACTGTCTCTTATACACATCTTGAGTGAGTGAGCATGCA / ACATGCATGCTCACTCACTCAAGATGTGTATAAGAGACAGTCGACCTGCAGGG [WT ME 53-bp transposon end],51,
OE 53-bp transposon end (dsDNA) DNA 1: CCCTGCAGGTCGACTGACTCTTATACACAAGTTGAGTGAGTGAGCATGCA DNA 2: ACATGCATGCTCACTCACTCAACTTGTGTATAAGAGTCAGTCGACCTGCAGGG,,no binding
